One substance from article PMC11952106 can be followed below.

Experiment [1] addresses act-EaCDCL^S (proteolytically activated short CDC-like protein of Elizabethkingia anophelis) (Elizabethkingia anophelis). Description: cryo-EM structure; prepore-like oligomer stacked on the inserted pore; act-EaCDCL^L (3.95 uM) then act-EaCDCL^S (7.9 uM) on POPC liposomes at 37°C; focused refinement, C30 symmetry, 3.13 Å.
Experiment [2] has the same target. Nature of the experiment: cryo-EM structure; membrane-inserted pore on POPC liposomes; act-EaCDCL^L (3.95 uM) then act-EaCDCL^S (7.9 uM) at 37°C; focused refinement, C30 symmetry, 2.87 Å.

“act-EaCDCL^S (proteolytically activated short CDC-like protein of Elizabethkingia anophelis) (domain or fragment)”: the stoichiometry N in experiment [1] and in experiment [2] was 30 subunits in each case.

As a reminder, the stoichiometry N is a count of units in the complex or per binding partner.
